Assay results reported in US20020102606A1 (published 2002).
Substitutions are numbered along the chain they refer to. Each block holds one binder with its values, some of them ahead of it.

Columns and labels:
Assay in all cases: yeast two-hybrid; prey clone found with the bait of the row
[1] = target: T1, Profilin II amino acids 4-91 (prey) (human, UniProt P35080 4-91)
T1 construct: range 4-91
T1 sequence (looked up): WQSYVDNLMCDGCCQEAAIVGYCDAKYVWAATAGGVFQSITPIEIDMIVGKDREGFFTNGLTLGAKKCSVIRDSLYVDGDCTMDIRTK
Description: (§1) A total human brain (person) cDNA library cloned into the yeast expression vector pACT2 was purchased from Clontech (human brain […] cDNA, cat. # HL4004AH), transformed into the yeast strain J692 (genotype of this strain: Mat a, ade2, his3, leu2, trp1, URA3::GAL1-lacZ LYS2::GAL1-HIS3 ga14del ga180del cyhR2), and selected for the ability to drive leucine synthesis. In these yeast cells, each cDNA is expressed as a fusion protein with the transcription activation domain of the transcription factor Ga14 (amino acids 768 to 881) and a 9 amino acid hemagglutinin epitope tag. J693 cells (Mat α type) expressing the bait were then mated with J692 cells (Mat a type) expressing proteins from the brain library. The resulting diploid yeast cells expressing proteins interacting with the bait protein were selected for the ability to synthesize tryptophan, leucine, histidine, and β-galactosidase. DNA was prepared from each clone, transformed by electroporation into E. coli strain KC8 (Clontech KC8 electrocompetent cells, cat. # C2023-1), and the cells were selected on ampicillin-containing plates in the absence of either tryptophane (selection for the bait plasmid) or leucine (selection for the brain library plasmid). DNA for both plasmids was prepared and sequenced by di-deoxynucleotide chain termination method. The identity of the bait cDNA insert was confirmed and the cDNA insert from the brain library plasmid was identified using BLAST program against public nucleotides and protein databases. Plasmids from the brain library (preys) were then individually transformed into yeast cells together with a plasmid driving the synthesis of lamin fused to the Ga14 DNA binding domain. Clones that gave a positive signal after β-galactosidase assay were considered false-positives and discarded. Plasmids for the remaining clones were transformed into yeast cells together with plasmid for the original bait. Clones that gave a positive signal after β-galactosidase assay were considered true positives.
(§2) The “AA” refers to the amino acids of the bait or prey. The “NUC” refers to the nucleotides of the bait or prey.

[2] = target: T2, MAPKAP-K3 NUC 433-1003 (bait) (UniProt Q16644 114-304)
T2 construct: range 114-304; also called MAP Kinase MAPKAP-K3
T2 sequence (Q16644 114-304 limits assumed): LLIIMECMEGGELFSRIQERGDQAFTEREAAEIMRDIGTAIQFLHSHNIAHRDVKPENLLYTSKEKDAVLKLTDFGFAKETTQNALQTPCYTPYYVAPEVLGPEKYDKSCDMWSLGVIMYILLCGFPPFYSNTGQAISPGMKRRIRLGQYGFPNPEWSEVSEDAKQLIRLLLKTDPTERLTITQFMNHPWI
Description: as §1, §2

[3] = target: T3, p38 gamma amino acids 29-368 (bait) (UniProt P53778 29-367)
T3 construct: range 29-368; also called Protein Kinase p38 gamma; p38 gamma kinase
T3 sequence (looked up): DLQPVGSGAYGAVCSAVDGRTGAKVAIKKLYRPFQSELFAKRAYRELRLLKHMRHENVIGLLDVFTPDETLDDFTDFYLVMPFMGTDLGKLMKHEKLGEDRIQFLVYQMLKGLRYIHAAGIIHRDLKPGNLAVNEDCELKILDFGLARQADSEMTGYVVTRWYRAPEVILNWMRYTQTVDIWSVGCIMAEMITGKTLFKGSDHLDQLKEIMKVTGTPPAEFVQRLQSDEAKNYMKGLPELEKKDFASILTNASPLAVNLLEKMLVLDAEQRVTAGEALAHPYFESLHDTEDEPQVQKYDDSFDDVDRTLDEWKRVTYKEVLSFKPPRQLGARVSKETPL
Description: as §1, §2

[4] = target: T4, PRAK NUC 201-1104 K51M, T182D (bait) (UniProt Q8IW41 1-301)
T4 construct: Limits printed as nucleotides only; also called Protein Kinase PRAK
T4 sequence (looked up): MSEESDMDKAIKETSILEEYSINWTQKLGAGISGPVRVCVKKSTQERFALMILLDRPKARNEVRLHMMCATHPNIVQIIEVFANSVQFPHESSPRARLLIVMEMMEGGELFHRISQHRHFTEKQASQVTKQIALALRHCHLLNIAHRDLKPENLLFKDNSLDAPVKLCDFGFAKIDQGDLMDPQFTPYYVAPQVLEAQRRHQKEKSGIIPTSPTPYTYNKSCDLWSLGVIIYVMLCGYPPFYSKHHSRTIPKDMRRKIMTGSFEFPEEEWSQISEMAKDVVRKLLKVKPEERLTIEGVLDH
Description: as §1, §2

[5] = target: T5, PRAK NUC 201-1104 (bait, no mutation) (UniProt Q8IW41 1-301)
T5 construct: Limits printed as nucleotides only; also called Protein Kinase PRAK
T5 sequence (looked up): T4 sequence (looked up) with M51K, D182T
Description: as §1, §2

[6] = target: T6, PRAK NUC 201-1104 K51M (bait) (UniProt Q8IW41 1-301)
T6 construct: Limits printed as nucleotides only; also called Protein Kinase PRAK
T6 sequence (looked up): T4 sequence (looked up) with D182T
Description: as §1, §2

B1: TIAR amino acids 1-48 (bait) (other)
chain: MMEDDGQPRTLYVGNLSRDVTEVLILQLFSQIGPCKSCKMITEHTSND
- binding result [1]: binds

B4: Homer-3 NUC 720-1152 (prey) (other, human, UniProt Q9NSC5 210-354, looked up)
chain: AAQWRQQLEAQRAEAERLRQRVAELEAQAASEVTPTGEKEGLGQGQSLEQLEALVQTKDQEIQTLKSQTGGPREALEAAEREETQQKVQDLETRNAELEHQLRAMERSLEEARAERERARAEVGRAAQLLDVSLFELSELREGLA
- binding result [2]: binds

B5: Nuclear Mitotic Apparatus Protein 1 (NuMA1) NUC 1395-1713 (prey) (other, human, UniProt Q14980 413-519, looked up)
chain: LQLETLKQEAATLAANNTQLQARVEMLETERGQQEAKLLAERGHFEEEKQQLSSLITDLQSSISNLSQAKEELEQASQAHGARLTAQVASLTSELTTLNATIQQQDQ
notes: range 413-519
- binding result [2]: binds

B6: Nuclear Mitotic Apparatus Protein 1 (NuMA1) NUC 1394-1711 (prey) (other, human, UniProt Q14980 413-519, looked up)
chain: B5 chain
notes: Limits printed as nucleotides only
- binding result [4]: binds

B7: MLK2 amino acids 398-556 (prey) (enzyme, human, UniProt Q02779 398-556, looked up)
chain: LRSREEELLRAAQEQRFQEEQLRRREQELAEREMDIVERELHLLMCQLSQEKPRVRKRKGNFKRSRLLKLREGGSHISLPSGFEHKITVQASPTLDKRKGSDGASPPASPSIIPRLRAIRLTPVDCGGSSSGSSSGGSGTWSRGGPPKKEELVGGKKKG
notes: range 398-556; also called mixed lineage kinase
- binding result [5]: binds
- binding result [6]: binds

B9: Histone Acetyl Transferase 1 (HAT1) amino acids 334-420 (prey) (enzyme, human, UniProt O14929 334-419, looked up)
chain: ILRLLVTDMSDAEQYRSYRLDIKRRLISPYKKKQRDLAKMRKCLRPEELTNQMNQIEISMQHEQLEESFQELVEDYRRVIERLAQE
notes: range 334-420
- binding result [4]: binds

B10: Vimentin amino acids 309-463 (prey) (other, human, UniProt P08670 309-463, looked up)
chain: LRQAKQESTEYRRQVQSLTCEVDALKGTNESLERQMREMEENFAVEAANYQDTIGRLQDEIQNMKEEMARHLREYQDLLNVKMALDIEIATYRKLLEGEESRISLPLPNFSSLNLRETNLDSLPLVDTHSKRTLLIKTVETRDGQVINETSQHHD
notes: range 309-463
- binding result [2]: binds

The next lines start with the values.

- binding result [2]: binds
B2: ERF-2 amino acids 7-192 (prey) (other, human, UniProt P47974 7-192, looked up)
chain: SAFYDVDFLCKTEKSLANLNLNNMLDKKAVGTPVAAAPSSGFAPGFLRRHSASNLHALAHPAPSPGSCSPKFPGAANGSSCGSAAAGGPTSYGTLKEPSGGGGTALLNKENKFRDRSFSENGDRSQHLLHLQQQQKGGGGSQINSTRYKTELCRPFEESGTCKYGEKCQFAHGFHELRSLTRHPKY
notes: range 7-192; also called TIS11D

- binding result [3]: binds
B3: DLG2 amino acids 294-594 (prey) (other, human, UniProt Q15700 294-594, looked up)
chain: THSYSPPMENHLLSGNNGTLEYKTSLPPISPGRYSPIPKHMLVDDDYTRPPEPVYSTVNKLCDKPASPRHYSPVECDKSFLLSAPYSHYHLGLLPDSEMTSHSQHSTATRQPSMTLQRAVSLEGEPRKVVLHKGSTGLGFNIVGGEDGEGIFVSFILAGGPADLSGELQRGDQILSVNGIDLRGASHEQAAAALKGAGQTVTIIAQYQPEDYARFEAKIHDLREQMMNHSMSSGSGSLRTNQKRSLYVRAMFDYDKSKDSGLPSQGLSFKYGDILHVINASDDEWWQARRVMLEGDSEEMG
notes: range 294-594; also called chapsyn-110

- binding result [4]: binds
B8: Homer-3 NUC 774-1152 (prey) (other, human, UniProt Q9NSC5 228-354, looked up)
chain: RQRVAELEAQAASEVTPTGEKEGLGQGQSLEQLEALVQTKDQEIQTLKSQTGGPREALEAAEREETQQKVQDLETRNAELEHQLRAMERSLEEARAERERARAEVGRAAQLLDVSLFELSELREGLA
notes: as for B6
